The values that follow come from PMC5906480, “Tau Antibody Structure Reveals a Molecular Switch Defining a Pathological Conformation of the Tau Protein” (Scientific Reports, 2018).

The subject of assay [1] is tau in brain fractions of rTg4510 mice overexpressing human tau with P301L mutation. The experiment in a line: Western and dot blot, rTg4510 mouse brain. Type of assay: binding, human tau in rTg4510 mouse. The following applies: C5.2 1 µg/mL overnight 4 °C, 24 weeks old mice. An excerpt: rTg4510, tTA and non-Tg littermate F1 mice were bred at Taconic, Denmark. Mice expressing the tTA activator transgenes were maintained on 129S6 background strain (Taconic) and mutant tau responder mice were maintained in the FVB/NCrl background strain (Taconic). Mice were screened by PCR using the following primer pairs [NT] and [NT] for the tTA activator transgene and [NT] and [NT] for the mutant tau responder transgene. rTg4510, tTA and non-Tg littermates were group-housed (5 animals/cage) and received water and food ad libitum (Brogaarden, Denmark) as well as environmental enrichment. The light/dark cycle was 12 hours; room temperature was 21 ± 2 °C and a relative humidity of 55% ± 5%. All animal experiments were performed in accordance with the European Communities Council Directive #86/609, the directives of the Danish National Committee on Animal Research Ethics, and Danish legislation on experimental animals (license no. 2014-15-0201-00339). Mice were euthanized by cervical dislocation. Brains were quickly removed, weighed and divided sagittally down the midline to yield two hemispheres. […] Tau and pTau levels were assessed in the samples using 1 μg/mL C5.2 overnight at 4 °C. A secondary fluorophore conjugated IgG antibody was used (IRDye 680 Goat anti-mouse, LICOR biosciences) and the signal was quantified using Odyssey CLx and Image studio software (LI-COR biosciences). […]

In assay [2] the test system is normal tau in brain sections from healthy control subjects (prefrontal cortex). The experiment in a line: Immunohistochemistry, healthy control brain sections. Type of assay: binding, human. The conditions noted are these: C5.2 at 0.1 to 1 μg/mL, overnight 4 °C, paraffin sections. The protocol:
Paraffin sections of 4 μm thickness were prepared from blocks of PFA-fixed prefrontal cortex from AD donors and non-demented controls obtained from Tissue Solutions (Glasgow, UK). The sections were deparaffinised, rehydrated and subjected to antigen retrieval by boiling in 10 mM citrate buffer pH 6 for 5 min. Endogenous peroxidase was quenched for 10 min with 1% H2O2 in PBS. Sections were then incubated 20 min in blocking buffer followed by overnight incubation in a humidified chamber at 4 °C with primary antibody at 0.1 to 1 μg/mL in incubation buffer. Between each incubation step, the sections were washed 3 × 10 min in wash buffer. Subsequently, the sections were incubated at room temperature in the following solutions; 60 min with a biotinylated secondary Ab diluted 1:200 in wash buffer; 60 min in ABC; 20 min in DAB. Finally, the sections were counterstained with hematoxylin and coverslipped.

In assay [3] the test system is FITC-conjugated tau peptide pS396. The experiment in a line: Fluorescence polarization direct binding, pS396 peptide. As to the method:
FITC-labeled peptides used in fluorescence polarization experiments were synthesized by Biomatik (Cambridge, ON, Canada). Fab C5.2 affinity was determined using a fluorescence polarization-based direct binding assay with fluorescein isothiocyanate (FITC)-conjugated peptides (Table 1). The FITC-peptide concentration was kept constant at 300 nM while Fab C5.2 was serially diluted from 675 nM to 0.08 nM. Data was collected at 25 °C using excitation and emission wavelengths of 485 nm and 535 nm, respectively. Each experiment was done in a single 96-well plate and calculated in triplicate (buffer: 50 mM Tris, 100 mM NaCl, 0.1% pluronic F-127). The experiments were performed with a DTX 880 Multimode Detector (Beckman Coulter, Jersey City, NJ). Fluorescence data was reduced using multimode detection software and KD values were calculated in GraphPad Prism 7.0 using a nonlinear regression model.
To accurately measure the C5.2 binding affinity, we performed fluorescence polarization experiments to determine dissociation constants (KD), using the Fab C5.2 and four differentially phosphorylated FITC-conjugated peptides (Table 1). The peptide concentration was kept constant while that of Fab C5.2 was serially diluted from 675 nM to 0.08 nM (Fig. 1d). […] In comparison with a […] IgG molecule, each Fab fragment contains a single binding site so the KD was calculated using a nonlinear model.
In general terms: Fluorescence polarisation rises when a labelled molecule tumbles more slowly, as on binding a larger partner.

By Kd is commonly meant the free concentration of one partner at which half of the binding sites on the other are occupied at equilibrium, for simple one-to-one binding. Read a low Kd as higher affinity.

B1: C5.2: novel mouse monoclonal antibody that targets the pS396 tau epitope region (antibody, V domains shown)
VH: QVQLQQSDAELVKPGASVKISCKASGYTFTDRTIHWVKQRPEQGLEWIGYIYPGDDSTKYNDMFKAKATLTADKSSNTAYMQLNSLTSDDSAVYFCARRGTMDYWGQGTSVTVSS
VL: DVQMIQSPSSLSASLGDIVTMTCQASQDTSINLNWFQQKPGKAPKLLIYGASNLEDGVPSRFSGSRYGTDFTLTISSLEDEDMATYFCLQHTYLPFTFGSGTKLEIK
As for B1, the “Binding to insoluble tau fraction (P3)” value in assay [1] (sarkosyl-insoluble P3) was “binds predominantly to an insoluble tau fraction (P3)”. Further, in assay [1] (soluble S1), the “Reactivity to soluble tau fraction (S1)” value is recorded as “also has reactivity to a soluble tau fraction (S1)”. For the same molecule, the “Binding to normal tau in brain sections” value in assay [2] is listed as “does not bind to normal tau”. Besides, the Phosphorylation state-specificity entry in assay [3] (Discussion, ELISA and fluorescence polarization) is “phosphorylation state-specific with nanomolar affinity”. Further, in assay [3] (both experiments (ELISA and fluorescence polarization)), the Phospho-specificity entry is reported as “phospho-specificity for pS396”. Besides, in assay [3] (restated in Discussion, fluorescence polarization, Fab C5.2), the Kd turned out to be 14.9 nM.
